From FireProtDB (doi:10.1021/bi00009a035)

Details: Saccharomyces cerevisiae (strain ATCC 204508 / S288c); pH 7.5; 25 °C; GdnHCl; CD; Tris-HCl 20 mM; NaCl 40 mM; reversible: yes (94-100%)

Cytochrome c isoform 1 K79I, P00044, sequence (P00044 whole entry K79I, canonical isoform): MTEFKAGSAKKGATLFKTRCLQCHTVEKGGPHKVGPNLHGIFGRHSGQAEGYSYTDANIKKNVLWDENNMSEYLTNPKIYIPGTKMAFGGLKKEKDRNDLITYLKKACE
Cytochrome c isoform 1 K79G, P00044, sequence (P00044 whole entry K79G, canonical isoform): as the sequence (P00044 whole entry K79I, canonical isoform) above, with I79G counted along it
Cytochrome c isoform 1 K79V, P00044, sequence (P00044 whole entry K79V, canonical isoform): as the sequence (P00044 whole entry K79I, canonical isoform) above, with I79V counted along it
Cytochrome c isoform 1 K79L, P00044, sequence (P00044 whole entry K79L, canonical isoform): as the sequence (P00044 whole entry K79I, canonical isoform) above, with I79L counted along it
Cytochrome c isoform 1 wild type, P00044, sequence (P00044 whole entry, canonical isoform): as the sequence (P00044 whole entry K79I, canonical isoform) above, with I79K counted along it
Cytochrome c isoform 1 K79A, P00044, sequence (P00044 whole entry K79A, canonical isoform): as the sequence (P00044 whole entry K79I, canonical isoform) above, with I79A counted along it
Cytochrome c isoform 1 K79R, P00044, sequence (P00044 whole entry K79R, canonical isoform): as the sequence (P00044 whole entry K79I, canonical isoform) above, with I79R counted along it

Substance	denaturant m value	denaturant midpoint (higher = more stable)	unfolding free energy
Cytochrome c isoform 1 wild type, P00044	4.87 kcal/mol/M	1.16 M	5.66 kcal/mol

Same assay, conditions: Saccharomyces cerevisiae (strain ATCC 204508 / S288c); pH 7.5; 25 °C; GdnHCl; CD; Tris-HCl 20 mM; NaCl 40 mM; reversible: yes (94-100%); structure 1YCC

Substance	ddG of mutation (higher = less stable)	denaturant m value	denaturant midpoint (higher = more stable)	unfolding free energy
Cytochrome c isoform 1 K79A, P00044	0.45 kcal/mol	4.44 kcal/mol/M	1.17 M	5.21 kcal/mol
Cytochrome c isoform 1 K79G, P00044	0.74 kcal/mol	4.58 kcal/mol/M	1.07 M	4.92 kcal/mol
Cytochrome c isoform 1 K79I, P00044	1.19 kcal/mol	4.29 kcal/mol/M	1.04 M	4.47 kcal/mol
Cytochrome c isoform 1 K79L, P00044	0.03 kcal/mol	4.98 kcal/mol/M	1.13 M	5.63 kcal/mol
Cytochrome c isoform 1 K79R, P00044	0.03 kcal/mol	5.25 kcal/mol/M	1.07 M	5.63 kcal/mol
Cytochrome c isoform 1 K79V, P00044	1.38 kcal/mol	4.01 kcal/mol/M	1.07 M	4.28 kcal/mol
